From the supplement of paper PMC7877785 come the findings set out here.

± gives the uncertainty stated by the source.

A short description of this data set: self-splicing fitness, log relative to wild type (ln ratio); higher = more splicing; Tetrahymena group I intron in knt gene, E. coli kanamycin selection, DiMSum; sequences stand for … in CUCUCU…GGAGGGAAAAGUUAUCAGGCAUGCACCUGGUAGCUAGUCUUUAAACCAAUAGAUUGCAUCGGUUUAAAAGGCAAGACCGUCAAAUUGCGGGAAAGGGGUCAACAGCCGUUCAGUACCAAGUCUCAGGGGAAACUUUGAGAUGGCCUUGCAAAGGGUAUGGUAAUAAGCUGACGGACAUGGUCCUAACCACGCAGCCAAGUCCUAAGUCAACAGAUCUUCUGUUGAUAUGGAUGCAGUUCACAGACUAAAUGUCGGUCGGGGAAGAUGUAUUCUUCUCAUAAGAUAUAGUCGGACCUCUCCUUAAUGGGAGCUAGCGGAUGAAGUGAUGCAACACUGGAGCCGCUGGGAACUAAUUUGUAUGCGAAAGUAUAUUGAUUAGUUUUGGAGUACUCGUGGUCG
A digest of the protocol:
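Fitness was computed with DiMSum as the error-weighted combination of replicate fold changes, kanamycin versus none, each normalised to wild type. The library randomised all eight intron nucleotides of the P1ex region, with the intron placed in the knt kanamycin-resistance gene on pET-22b(+) in E. coli BL21(DE3). Six replicate transformations were grown overnight at 37°C or 30°C on LB agar with or without 25 μg/mL kanamycin, plus 100 μg/mL carbenicillin, 50 μM IPTG and 0.2% rhamnose. Pooled colonies were amplicon-sequenced on an Illumina HiSeq 2500.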

With AUUCAGCAAUAUUACGAGUG, the “self-splicing fitness (ln)” value reads like this: (30 °C) -1.37 ± 0.062; (37 °C) -1.02 ± 0.082.
As to AGCUAGCAAUAUUACGACAC, the “self-splicing fitness (ln)” value is -2.07 ± 0.15 (30 °C) and -1.11 ± 0.16 (37 °C).
On to UUCGAGCAAUAUUACGCUUU, for which the “self-splicing fitness (ln)” value (30 °C) is -3.89 ± 0.26 and the “self-splicing fitness (ln)” value (37 °C) is -2.56 ± 0.21.
The matching figures for CAUUAGCAAUAUUACGUUCA: -2.33 ± 0.2 and -2.35 ± 0.24.
The matching figures for ACCUAGCAAUAUUACGGUAU: -3.08 ± 0.14 and -1.44 ± 0.11.
The matching figures for GACGAGCAAUAUUACGUCCU: -3.24 ± 0.25 and -1.81 ± 0.25.
Turning to GUUCAGCAAUAUUACGGCGC, the “self-splicing fitness (ln)” value was -0.314 ± 0.094 (30 °C) and 0.633 ± 0.13 (37 °C).
As to UGAAAGCAAUAUUACGCGUA, the “self-splicing fitness (ln)” value (30 °C) is -1.31 ± 0.12 and the “self-splicing fitness (ln)” value (37 °C) is -0.174 ± 0.13.
On the same counts, the results for UUAAAGCAAUAUUACGAUCG are 0.538 ± 0.098 and 0.338 ± 0.13.
On the same counts, the results for CCGCAGCAAUAUUACGAAAA are -3.37 ± 0.21 and -2.39 ± 0.16.
For the sequence AACCAGCAAUAUUACGGUCG, the “self-splicing fitness (ln)” value reads like this: (30 °C) -0.366 ± 0.049; (37 °C) 0.214 ± 0.07.
On to CCUUAGCAAUAUUACGCCUC, for which the “self-splicing fitness (ln)” value (37 °C) is -2.65 ± 0.41.
On the same count and under the same terms, in the case of GUCGAGCAAUAUUACGACCU it was -1.74 ± 0.26.
For the sequence CCAAAGCAAUAUUACGAUUA, the “self-splicing fitness (ln)” value is -3.39 ± 0.2 (30 °C) and -3.27 ± 0.25 (37 °C).
On the same counts, the results for GCGCAGCAAUAUUACGAUCA are -1.5 ± 0.14 and -0.594 ± 0.15.
The matching figures for UGUGAGCAAUAUUACGUCCG: -0.363 ± 0.12 and -0.0626 ± 0.17.
In the case of ACUGAGCAAUAUUACGAACG, the “self-splicing fitness (ln)” value was -2.48 ± 0.17 (30 °C) and -1.77 ± 0.21 (37 °C).
In the case of CUUAAGCAAUAUUACGAAUC, under “30 °C”, the “self-splicing fitness (ln)” value was -2.97 ± 0.23.
Regarding UCCCAGCAAUAUUACGUAUU, the “self-splicing fitness (ln)” value is -2.91 ± 0.2 (30 °C) and -3.28 ± 0.28 (37 °C).
Turning to CGGCAGCAAUAUUACGGCAG, the “self-splicing fitness (ln)” value (30 °C) is -0.677 ± 0.095 and the “self-splicing fitness (ln)” value (37 °C) was -0.796 ± 0.11.
The matching figures for GAUCAGCAAUAUUACGACUG: -1.21 ± 0.082 and -0.166 ± 0.13.
In the case of ACCAAGCAAUAUUACGCUCC, the “self-splicing fitness (ln)” value by setting is: (30 °C) -1.35 ± 0.17; (37 °C) -0.621 ± 0.25.
The matching figures for UGCUAGCAAUAUUACGGCUG: -0.317 ± 0.15 and -0.46 ± 0.18.
The matching figures for UAACAGCAAUAUUACGGCCU: -1.21 ± 0.13 and -0.33 ± 0.15.
On the same counts, the results for GACUAGCAAUAUUACGAUUU are 0.261 ± 0.061 and 0.116 ± 0.077.
In the case of CGGGAGCAAUAUUACGGAUC, the “self-splicing fitness (ln)” value was -3.09 ± 0.43 (30 °C) and -2.07 ± 0.42 (37 °C).
The matching figures for CCAUAGCAAUAUUACGUGUG: -2.23 ± 0.09 and -1.07 ± 0.08.
The matching figures for AACGAGCAAUAUUACGCUCA: -1.83 ± 0.12 and -0.666 ± 0.13.
Take CGGUAGCAAUAUUACGUGAU: the “self-splicing fitness (ln)” value is, setting by setting: (30 °C) -1.49 ± 0.14; (37 °C) -0.851 ± 0.18.
On the same counts, the results for UAUGAGCAAUAUUACGCCUG are -1.44 ± 0.14 and -1.57 ± 0.26.
On the same counts, the results for CUUAAGCAAUAUUACGUGCA are -2.91 ± 0.19 and -1.34 ± 0.18.
On the same counts, the results for GUCGAGCAAUAUUACGACUA are -1.67 ± 0.23 and -1.28 ± 0.18.
Turning to UAUGAGCAAUAUUACGUGAA, the “self-splicing fitness (ln)” value reads like this: (30 °C) -2.98 ± 0.33; (37 °C) -1.35 ± 0.17.
For CUUGAGCAAUAUUACGCCUG, the “self-splicing fitness (ln)” value (37 °C) was -1.13 ± 0.36.
With CAUGAGCAAUAUUACGAAUG, the “self-splicing fitness (ln)” value was -3.67 ± 0.2 (30 °C) and -2.33 ± 0.16 (37 °C).
As to CCAGAGCAAUAUUACGACCG, the “self-splicing fitness (ln)” value (30 °C) is -0.53 ± 0.14 and the “self-splicing fitness (ln)” value (37 °C) was -0.622 ± 0.22.
The matching figures for UAGGAGCAAUAUUACGGUCA: -2.65 ± 0.47 and -2.19 ± 0.26.
As to AAUCAGCAAUAUUACGAUCC, the “self-splicing fitness (ln)” value is 0.138 ± 0.13 (30 °C) and -0.291 ± 0.17 (37 °C).
On the same counts, the results for CAAGAGCAAUAUUACGGAUG are -2.89 ± 0.1 and -2.04 ± 0.12.
